Measurements from the DeepSol protein solubility set.

Assay: soluble on expression in E. coli; label from the status in PepcDB or PDB records

Sequence | soluble on expression in E. coli
MVKTGIEDVCGHWGHNFWRDKFKKFDDKYLRNVLIRENQPKSSIVSLYKKLEIKHAIEMAETGMISTVPTFASLNDCREEKIRKVTSSETDEIRELLSRNLYQIRQRTLSYNRHSLTADTSERQAKEILIRRRHSLRESIRKDSSLNREHRASTSTSRYLSLPKNTKLPEKLQKRRTISIADGNSSSSDAHAGTTVLNLLEHHHHHH | not soluble
MRFRPFTEEDLDRLNRLAGKRPVSLGALRFFARTGHSFLAEEGEEPMGFALAQAVWQGEATTVLVTRMEGRSVEALRGLLRAVVKSAYDAGVYEVALHLDPERKELEEALKAEGFALGPLVLAVRVLGSRGARGETRGVLE | soluble
MSLRTVDEKKEQVEKLIQSLDEGVKNFTYNPGRFKALLEMQALMPKYTFRNIMLARIQLPEAQFIASFNRWKELGRNVKKGERSLRILAPRFKKVKDEITGEEETKLIGFLGVPVFDVSQTEGDPLPADRIKLTLDGESQEAVDIFEWVKELAKEDDCPVTIKHADGANGYYSITNHAIVVDSKLSINHRAKTGVHELVHSRVHRNINGTTATERECVAEGVAFIVCSYFGLDTSDYSFEYVNGWSKDGGESLMKYGDIMQKTANLLIEDFERVAEKSQAQAAGEGEKNDSPISAEGHHHHHH | soluble
INTVGYLEQKMFAAMVADNQMAMVMLNPKNLKASNGEEELAGQTWYWKVAPVATTQPLLKAFDVSVAAEKQASPIITVRSYVAK | soluble
MQEIQLSPADDLQQALNNSQNGDVITLGPGSYFGNFIISNQVTLRSNNKGEAIIDSQGKGHGLWLKNSQITIENLTITNWGHDLTDQNSGIYSHGKIDNNKVPSLTIRNNILIGDGFGIWLNQADKAIISHNRVKGNLTLRSADRGNGIQVANVTNSHVFLNEVSETRDGVYVISSQNNIIEQNTMHHLRYGIHYMYSYDNTVKNNTAYDTRAGYALMSSRRLTITGNKTTNSEDYGFLLNFITQSTFSHNYVKNVWTKPENKVLGRDGKGLFVYNSGYNTVKHNIIDTAEIGIHLTAGSENIKIFGNSFINNPTQVKYVSNKKQEWSKDGRGNYWSNYLGWDMGNDGIGDTIFEPNDGIDKLVWQYPEMKMIMDSPAILILRWVQRQFPVLKPPGVKDSFPLMSAPSLTKNEQAATPLAVTTSTFTKSNSAQSANTTSASLKELEHHHHHH | not soluble
MGHHHHHHSHMERIVMPANYVHTRTTPFWTKETAPASIWRRHLDAGTRQGVYPRLCVMQGTIRYYGYADETSPEPVETLTIEAGQFGVFPPEKWHRIEALSDDTLFNVDFYVDPKILIEG | soluble
MFYAHNVDFRVFADFLYLLRVRNSGNVVLILDNASFHKSSYVLATASRLNINLLFLPPYSLDLNRIEFGRI | soluble
MNERERVLAIKGGDHQAFIDLYNEYWSQVYDFSRLYIATIADAEEIVQDVFVKLWESRHLLKEDENIKGFLFIVTRNIVFNKNKKRVNENLFKTSVLVAYGNEGYYNSTTVEEDYCASQLKIFIDRLINSLPEQQRKCFLLSREESLSYKEIAERLGISQKTVEIHMGKALKFLKDKVKRGWEILLSLLSF | not soluble
MGSDKIHHHHHHMAVELRYDEEAVFLRRVNRFVVEVKSSRGVVRCHLMDTGRIDHLASPGRRGVLIAWLNRLGGKTVCRAQAFKTAGGVVAVVDSRVPNRLFAEAAPMVVGGDASIEAEREVFGSRLDFLISTGRGLWAVEVKGVNLSLDGVGLFPNAPSARAVKHLEVLARLAREGVKPLMAFVALRPDIRVFAPNYRVDRRFASLACTLLRRGLVGMVGIRVSIDLEPGVVRIRPVATAPVQCPPLQPGR | not soluble
MAKQDVIELEGTVLDTLPNAMFKVELENGHEILAHVSGKIRMNYIRILPGDKVTVEMSPYDLTRGRITYRYK | not soluble
MGSDKIHHHHHHMFTLYERKNRQKSNVNIFVMNYVTNLTKENLAGERIGVFFGTFAPLHVGHQAEIYKAAALNDGVLVVTSGYTGDRGEQIGLPLRKRFRYLRQAFADEWQIKVDYLNEDGIPKMPDGWDVWLDKLLGIIKRNIVNKNAKITFYTGEPDYKKEIEKRLGDNPQFRVSLMDRTILNISATKIRKEPLKYWDYINRVFRRHFVQKVVVMGSSNSGKSTLIRRLARSANSPFSDDFAAIYQEESNVADSEMDIKDYSNIIQGQYQANSLEINSPANNGLAIFNGDAISLQAYSNLLLNQDERLQLKHLYNTIISAEEFDLILVIPPFSDPRRKVIRFTGAAIDPVAYYQELIRLIDFYGFSDKMVVLNAKNQTDDPAGYYARYLQALDAIEKYTSFDIEHHR | not soluble
MGHHHHHHSHMKVQGAGQLRLSIDAQDRVLLLHIIEGKGLISKQPGTCDPYVKISLIPEDSRLRHQKTQTVPDCRDPAFHEHFFFPVQEEDDQKRLLVTVWNRASQSRQSGLIGCMSFGVKSLLTPDKEISGWYYLLGEHLGRTKHLKVARRRL | soluble
SHPGIDSMSSNINCENNPFSFYGNPHKSVIIHGKEGTELLKEKGEDCKTFENSQQYFLWCCVQQQMYHYQLLSTAFASYGFEPPRIPGAFPHHIPPIFNGSMKCLRDREVFNQSGFLYVNVSPDTYQETRQEAPVEQRNQWSEKSKTTSKKSICKVLFECTNSSLLENAENRSIFSKQGSGSHVGENSKNPSEDSGQSGRLSQNATAEHNVLEKHLQEEYQMAKNTVNESFDSLKECSAASVIKGSYLLSQVVHIPEDAIEPEIPPDLQGPGGHVFLRMLSRSWRQYKRALEHNE | soluble
MVVRTWRSMQERYNLIGSKCKTCGTVYFPARSVCPECRRKGELEDYKLNGKGKVYTYSVVYAAPKDFEKQSPYVIGIVELEEGTKITSQIDCEPEEVKIGMPVEATFRKIREDGCDGVISYGYKFVPTEQ | not soluble
MAKVLVLNASYEPLNITSWQRAVVLLIKGKAEQVEHNGKMVYNNFPLPTVIRLRHYVVTPYKEIPLTRRNILHRDGHSCQYCGYTGDELTLDHVIPKSRGGGETWENIVTACVRCNVKKGNRTPKEANMPLRQTPRRPISSLYFEVTKHVRTGTHQEWRKYVIGALEHHHHHH | not soluble
MSLTVLILRCIMVKSTTRKSAKSDRRRYNRIARFYDLFETPMELMNFRKWRKMLFDLIKAEKGLVLEIGAGTGKNIPHYPSNVVALDISEKMLERAVRRAKESGKKVDFLLADAENLPFRSNSFDVVFTTFVFCSVDDPVRGLREAFRVLKKGGRAYFLEHMLPKSRFLHPLFNLLNPIFRAFGPEINRRTDENIQRAGFQIVKEYMLFGSVFRLIVAEKPLDSVDEASGYSLKRSESSDSSNFRRFIGQSLLPLRLTQLLREGHHHHHH | not soluble
MPRKQLKGETHDQKAQIASAFGEIEQSKIFLDKRSESAAVKMDIADLLKEIIQKQLRKDYDPEVESNIFINPERGDFEVYILKKIVKEVDLPTIEIGLDEVRQIDDSLELGDYYEEGPIKLDDYLTRKSIQIIKQSVQKKVRDLERLAVYEECLEKVGEVVAGEVYQVRPNEVIFTYNTSKDHRVELVLPKSEMMKKDNPRRTPRMKLYVKRIEREKVKVRNDDGTVEEREKPDGGMKVIVSRVDDRFLYKLFESEVPEILDGLIVIKGIARVPGERAKVAVESTSSRIDPVGATVGYRGKRIQSIVKELNNENIDVIYYTDEPQVFIARALQPAKIDPMTVHADMKTRKARVMLKPDQIKYAIGKNGNNIHLAEKLTGYEIDVYRDVIDKSLEDPNDIDIIEFREEFGDDMIYQLLDGGLDTAKKILKGGVEKIEEALLGTQKSEELFVFNKTRKPVKPKERRITDDEKRYWKKIAETIYRTVREQFNDEDLKALLDDSHERSLKGDGIDPEEIRDKETNLEHHHHHH | not soluble
MLSCVIPAHDEAALIGQTLQCLHACAQAMQLDYEAIVVADACSDDTAAIARANGASVIEVELRHIAATRNAGAQAAQGDRLLFLDADTQVNPQVMAAALAALDAGAVGGGARVHLHGKRVWVERMAQAVFGWIFRLSGIAPGCFLFCTRAAFASAGGFDTRYYAGEDVALSRSLARCGRFVILRQTVHTSDRKLRSFSKREHVGLLLRFLWRGRRMLQTRDALGFWYQRRRLEHHHHHH | not soluble
AHHHHHHGSGMKYLIKLKYIKPAQLAVNREQKLAEFYPIFEDGTLGRVEAKARVFLPEYSDFAKGLGFEVKKRRMITEDDYAYLRAMVYGVVMGVLRNPGDWRRLEERVLEMEPIELRYWASKFRNAYWKYKNMRKLMFLARRFMEVEMI | not soluble
MGSDKIHHHHHHMDRLIYTAMTGLKHIMEQQSTTANNLANATTTGFRAQIDSFRAVPVLSDGLPTRAFVVDATVGTNFNSGVINTTGRELDLAIRDQGWFAVQRPDGTEAYTRNGNFKLNENGVLQTQDGMMVLGDNGPITIPLEAKVAFANDGMVSAVATNVVPLFTNMIGRLKLVNPGDDNLVRGPDGLFETRNREPVPASANVTIVSGALEGSNVNVVEEMVNMISQARQFDLQTKLIQNAENNATKAGQIFSLS | not soluble
MSSCSSLQSSSSRGASTDSLNTTSNGFSDGGSNLLPPKPNRIGCAATGAQSETDLRFVTSRDTHSSIPLNEPFGFGEKSPRAFMSENDLSAGAAGASTDFPEVTRTPSYLRISCALNGYTKSPNKSDLTPIAPHPPVSTMGESFVERRSRMFSQPQQRNPAPGFSSPLPPTTVSSQSASSEIEWSVEKF | not soluble
AKGSTNHRALTGVIFEPFEEVKKELDLVPTVPQASLARQKYVDESESAVNEQINVEYNVSYVYHAMFAYFDRDNVALRGLAKFFKESSEEEREHAEKLMEYQNKRGGKVKLQSIVMPLSDFDHADKGDALHAMELALSLEKLTNEKLLNLHSVATKNGDVQLADFVETEYLGAQVEAIKRISEYVAQLRRVGKGHGVWHFDQMLLHEGGDAA | soluble
MKCVEVHVIDSSAIFQRKAVYRNMVTVPEVVAEILDEASALYFSVKNFRVEEASPESVEEVKEAARKTGDIHKLSDTDIKVLAKALDEIKKGNEVVLVTDDYAIQNVAMSLGIRFDGILHRQISKEFKWVKVCRGCGRRIESEICPVCGSEAIIRRVKNDKNRNSG | not soluble
MGSDKIHHHHHHMYGLIVNKASGNGKGQRTWKKVEYELQIRNTPYLVRFTSGSGHATTIVKELLTEGVKTIIAVGGDGTINEVANGLVNHRVPLGIIPAGSGNDFARCLNIPMHYEKALHRIFENKQKKVDLLHLGQRHCLTVTGIGFDGKIAKTVNEAIYKNWFNQFGFGGLSYVLSMLEVLKDYRPTNIQITVDGKELFFSGVWLVAVANSPNYGGGIRICPEASYDDGLLNICVVHGMSKWQLLRLFPKAYKGKHVVMEQHVTLLTGKDVYVQSDTPVLVQSDGEPIMESPVRLQIKKGALSVV | not soluble
MPGKLTATILTRNEAANIGDCIDSLAQLADEVIVLDSGSTDATRDIARARGANVIEDDGPWPGFGPQKNRALDRATGEWVLSIDADERVPPELAQEIRTAMARADADAYAIPRLSQFCGAWVHHSGWRPDHVIRLFRRGKARFSENLVHESLQVTGNVARLRTSLLHYSYTSMDQVHRKSAQYAEAGARDLTQRGKHIGALSPVLHGTWAFVRTLVLRRGFLDGGTGLAIARMNATVSYRKYRRARELASGANHRPLEHHHHHH | not soluble
MFPILETDRLILRQITDQDAEAIFACFSNDEVTRYYGLENMESIEQAISMIQTFAALYQEKRGIRWGIERRDTKELIGTIGFHALAQKHRRAEIGYEIIPEHWRNGFASEVISKVVSYGFSALGLSRIGAVVFTDNEASNRLLLKMGFQKEGVLRQYMYSKWDSI | not soluble
